Results taken from the RNAGym collection of RNA variant scans (doi:10.1101/gr.219683.116).

B1: mRNA-splicing (parent)
chain: AGUUGCUGCUGGGAGCUCCAGCACAGUGAAAUGGACAGAAGGGCAGAGCAA

Variants of: B1
Assay: exon inclusion enrichment index; higher = more inclusion; WT1 exon 5 minigene, HEK293

Variant | exon inclusion enrichment index
G5A C6A U7G G8A U10C | 1.08
G5C C6A U7C G8A U10A A30G A31U | 0.018
G5C C6G U7C U10C A30G | 3.89
G5C C6G U7C U10C A29G A30G | 3.01
C6A U7A C9A U10A C18G C19G | 0.718
C6A U7C C9A U10C G46U A47U | 3.03
C6U | 0.0511
G5C C6G U7C U10G G11C | 2.32
G5C C6U G8C C9U U10C A31G U32C | 3.89
G5C C6U G8C C9U U10C A31G U32A | 3.83
G5A C6U U7A G8U C9A A20C | 0.047
C6A U7C C9A U10C U32C | 4.44
G5A U7C G8A U10C G41C G42C | 3.27
C6G U7C | 0.331
G5A C6G U7G C9A C44A | 0.00167
G5A C6G C9A | 0.036
G5C C6U G8C C9U U10C U27G G28U | 0.00454
C24A | 0.223
G5A U7C G8A U10C C22U A23C | 1.42
G5C C6G U7C U10C G41U G42C | 3.95
G5C C6A U7C G8A U10A A37C G38C | 0.176

Variant | exon inclusion enrichment index
G5A C6G U7G C9A G15A C16A | 0.000736
G5A C6U U7A G8U C9A G41A G42A | 0.0506
C6A U7A C9A U10A A31G U32G | 0.383
G5A C6U U7A G8U C9A U27G | 0.0103
C6A U7A C9A U10A A25C | 2.61
G5A C6G U7G C9A G38A A39C | 0.0024
G2U U3G G5C C6G U7C U10C | 5.1
G5A U7C G8A U10C A39U A40G | 0.575
G5U G8U C9U U32C | 0.344
U3G U4C G5A C6G U7G C9A | 0.0394
G5U G8U C9U A29C | 0.0814
G12C G13A | 1.1
C6A U7A C9A U10A C36A A37C | 0.81
G5C C6U G8C C9U U10C A37G G38C | 2.08
G5A U7C G8A U10C U17G C18A | 2.15
G5A U7C G8C U10C | 1.39
G5U G8U C9U C36U A37U | 0.081
G5A C6U U7A G8U C9A G26U U27G | 0.261
G5U G8U C9U G11U G12A | 0.00214
G5A C6U U7A G8U C9A C16U U17G | 0.0217
C36A A37C | 0.209

Variant | exon inclusion enrichment index
G5C C6U G8C C9U U10C G33U G34A | 0.262
G5A U7C G8A U10G | 1.28
U4A G5A C6A U7A C9A U10A | 0.0853
G5C C6A U7C G8A U10A G26U U27G | 0.355
G5C C6G U7C U10C G43C C44G | 6.55
G5U G8U C9U C44A A45U | 0.41
G5A U7C G8A U10G G11A | 2.46
G5U G8U C9U G48U | 0.22
C6A U7C C9A U10C U17A C18G | 2.68
C6A U7C C9A U10C A40C G41A | 1.84
G5U G8C C9G | 1.51
G5A C6U U7A G8U C9A G21A C22G | 0.0719
G5C C6A U7C G8A U10A G41C G42A | 0.141
G5C C6U G8C C9U U10C G26U | 2.06
G5C C6U G8C C9U U10C A37C G38C | 1.95
C6A U7A C9A U10A G46C | 0.722
C6A U7C C9A U10C A29U A30C | 2.97
G5C C6G U7C U10C A35U C36G | 0.445
C6A U7A C9A U10A G42U | 0.988
C6A U7C C9A U10C C16U U17C | 2.51
U4C G5U C6U U7A G8U C9A | 0.269

Variant | exon inclusion enrichment index
C6A U7C C9A G11C | 2.88
C6A U7C C9A U10C C24U | 1.66
G11C G12C | 1.58
G5A U7C G8A U10C G28C A29C | 1.72
U3G | 0.0194
G5C C6A U7C G8A U10A A37G G38U | 0.0217
G5A U7C G8A U10C G43A C44U | 2.57
G5C C6G U7C U10C G26U U27G | 3.98
G5C C6G U7C U10C U27G | 2.02
G5U G8U C9U A23C | 0.1
G5C C6A | 0.0337
C6A U7A C9A U10A U32A G33U | 0.298
C6A U7A C9A U10A G13A | 1.97
C6A U7C C9A U10C C19G A20U | 3.25
G5U G8U C9U A31G U32G | 0.0767
G5C C6U G8C C9U U10C A47U G48U | 1.45
G2A U3C G5C C6U G8C C9U U10C | 2.03
G5A C6U U7A G8U C9A U10A G11C | 0.176
C6A U7A C9A U10A A25G G26C | 2.3
G5A C6G U7G C9A A30U A31G | 0.000854
C6A U7A C9A U10A G34C | 0.179
